The target in this assay is recombinant GST-BNIP3 protein (rat BNIP3) (rat). The assay is described as follows: SDS-PAGE and Western blot; GST-BNIP3 incubated with isolated rat liver mitochondria for 1 hour at 37°C in calcium-free buffer; mitochondrial and supernatant fractions blotted with a BNIP3 antibody; 90 kD band.

In publication PMC4249980 one finds stoichiometry N data, which are given here for one substance.

Take “recombinant GST-BNIP3 protein (rat BNIP3) (natural protein)”: the stoichiometry N came to 2.
